Measured values reported in US12276665B2, “Methods for screening and identifying agents that inhibit or modulate the nuclear egress complex of herpesviruses” (priority 2018, dated 2025).
Non-standard residues stand in square brackets, D forms with d. Residues, ends and D or L forms follow the SMILES beside them. *: point of attachment. Biotin = O=C1N[C@H]2[C@H](CS[C@H]2CCCCC(=O)*)N1; AEEA = NCCOCCOCC(=O)O

Key:
[1] = target: HCMV pUL53 (Human cytomegalovirus, UniProt P16794); details: 293T cells, transient transfection
Procedure: CoIP analyses were performed to investigate specific protein-protein interactions (Bannister and Kouzarides, 1996). To this end, 293T cells (5×10^6) were transfected with the plasmids coding for the proteins of interest. One day before CoIP, 50 mg/ml protein A sepharose or 25 μl of dynabeads Protein A were incubated with the appropriate antibody in 500 μl CoIP buffer at 4° C. overnight. Two or three dpt cells were harvested. Lysis was performed using 500 μl CoIP buffer containing protease inhibitors and PMSF on ice for 20 min, sonificated (20 impulses, 80%) and centrifuged (14000 rpm, 10 min, 4° C.). For expression controls 50 μl aliquots of each supernatant were taken and boiled in 50 μl 2× boiling mix for 10 min at 95° C. The antibody-loaded dynabeads or sepharose beads (washed three times with CoIP buffer) were incubated with the lysates for 1.5 h at 4° C. Thereafter, samples were washed with CoIP buffer five times, resuspended in 30 μl 2× boiling mix and boiled 10 min at 95° C. Separation and analyzation of protein complexes were performed using SDS-PAGE and Wb.
Protein samples obtained from CoIP or cell lysates were separated by SDS-PAGE and transferred to a nitrocellulose membrane by electroblotting (200-300 mA for 80 min). […] Finally, the membranes were washed again three times with PBSo over 30 min, shortly incubated within a freshly prepared ECL solution (10 ml ECL solution A, 100 μl ECL solution B and 3.1 μl H2O2) and the proteins were detected by the use of the FUJIFILM Luminescent Image Analyzer LAS-1000 (FUJIFILM Europe GmbH, Düsseldorf, Germany). […]
At three dpt, cells were lysed and HA-tagged proteins were precipitated using pAb-HA or a rabbit antibody Fc fragment as specificity control. […] Lysate controls taken prior to the IP and CoIP samples were subjected to standard Wb analysis and protein expression was analyzed using tag- or protein-specific antibodies.

[2] = target: pUL53 (Human cytomegalovirus, UniProt P16794); details: ratio of EC50 values
Procedure: Plates were washed four times with 0.01% Tween 20 in 0.1 M phosphate buffer pH 7.2 (300 μL/well) after each incubation step. […] All data points present means of duplicates.

[3] = tested on: MCMV pM53; experiment: coimmunoprecipitation (CoIP), proteins from transient transfection; type: binding; details: 293T cells
From the text: (§1) Two or three dpt cells were harvested.

[4] = target: T1, EBV BFLF2 (Epstein-Barr virus, UniProt P0CK47); experiment: as above; type: binding; details: 293T cells
T1 construct: expressed in transfected cells; host or cells: 293T
T1 sequence (P0CK47 whole entry, looked up): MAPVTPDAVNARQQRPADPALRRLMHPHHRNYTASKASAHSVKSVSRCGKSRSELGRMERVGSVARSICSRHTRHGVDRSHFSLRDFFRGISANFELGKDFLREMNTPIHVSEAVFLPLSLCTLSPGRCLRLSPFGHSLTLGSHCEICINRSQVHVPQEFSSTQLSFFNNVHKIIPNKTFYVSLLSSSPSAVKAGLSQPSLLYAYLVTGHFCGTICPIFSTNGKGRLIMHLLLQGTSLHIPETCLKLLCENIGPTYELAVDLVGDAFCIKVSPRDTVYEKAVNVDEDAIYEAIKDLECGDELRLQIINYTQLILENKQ
From the text: as §1

[5] = target: T2, VZV Orf27 (Varicella-zoster virus, UniProt P09283); experiment: as above; type: binding; details: 293T cells
T2 construct: expressed in transfected cells; host or cells: 293T
From the text: as §1

[6] = target: pUL50-pUL53 interaction (HCMV NEC) (Human cytomegalovirus, UniProt P16791); experiment: competitive binding assay
Procedure: These experiments were designed to address the peptide-protein interactions for each virus, as well as the ability of the hook peptides and proteins to cross-interact with the groove proteins of the respective other virus.
After blocking with BSA plates were incubated with 50 μL/well of inhibitor solutions at different concentration ranges, and 50 μL/well of His-tagged pUL50 (0.16 μg/mL) and BFRF1 (5 μg/mL), respectively. His-tagged pUL50 and BFRF1 were detected and plates developed as described above. IC50-values were determined using the regression wizard of GraphPad Prism. All data points present means of duplicates. Inhibition was calculated according to the following formula: % Inhibition=[1−(Apeptide−Ablank1)/(A100%−Ablank2)]×100, in which “100%” is a sample without inhibitor, “blank1” is a sample without coated hook protein and “blank2” is a sample without coated hook protein and without inhibitor.

## pUL50: HCMV groove protein of the core NEC; His-tagged in ELISA, HA-tagged in CoIP
[1]
  CoIP interaction with HCMV pUL53: +
[2]
  fold stronger interaction than the BFRF1-BFLF2 interaction of EBV: approximately 20 fold
[3]
  CoIP interaction with MCMVpM53: +
[4]
  CoIP interaction with EBV BFLF2: −
[5]
  CoIP interaction with VZV Orf27: −

## CC[C@H](C)[C@H](NC(=O)[C@H](C)NC(=O)[C@H](CCSC)NC(=O)[C@H](CCCCN)NC(=O)[C@H](CCSC)NC(=O)[C@H](CCSC)NC(=O)[C@H](CC(N)=O)NC(=O)[C@H](CC(C)C)NC(=O)[C@H](Cc1ccc(O)cc1)NC(=O)[C@H](CCCCN)NC(=O)[C@H](CC(C)C)NC(=O)[C@H](CCC(=O)O)NC(=O)[C@H](CC(C)C)NC(=O)[C@H](CCC(=O)O)NC(=O)[C@@H]1CCCN1C(=O)[C@H](Cc1c[nH]cn1)NC(=O)[C@H](CCC(=O)O)NC(=O)[C@H](CCCNC(=N)N)NC(=O)[C@H](Cc1ccccc1)NC(=O)[C@@H](NC(=O)[C@H](CC(=O)O)NC(=O)[C@H](Cc1c[nH]cn1)NC(=O)[C@H](CC(C)C)NC(=O)[C@H](CC(=O)O)NC(=O)[C@H](Cc1c[nH]cn1)NC(=O)[C@H](CC(C)C)NC(=O)[C@@H](NC(=O)[C@H](CC(C)C)NC(C)=O)[C@@H](C)O)[C@@H](C)CC)C(=O)N[C@H](C(=O)NCCOCCOCC(=O)N[C@@H](CCCCNC(=O)CCCC[C@@H]1SC[C@@H]2NC(=O)N[C@@H]21)C(N)=O)[C@@H](C)O [HCMV hook peptide]
[6]
  IC50: 114 nM

## CC[C@H](C)[C@H](NC(=O)CNC(=O)[C@H](CCCNC(=N)N)NC(=O)[C@H](Cc1ccccc1)NC(=O)[C@H](Cc1ccccc1)NC(=O)[C@H](CC(=O)O)NC(=O)[C@H](CCCNC(=N)N)NC(=O)[C@H](CC(C)C)NC(=O)[C@H](CO)NC(=O)[C@H](Cc1ccccc1)NC(=O)[C@H](Cc1c[nH]cn1)NC(=O)[C@H](CO)NC(C)=O)C(=O)N[C@@H](CO)C(=O)N[C@@H](C)C(=O)N[C@@H](CC(N)=O)C(=O)N[C@@H](Cc1ccccc1)C(=O)N[C@@H](CCC(=O)O)C(=O)N[C@@H](CC(C)C)C(=O)NCC(=O)N[C@@H](CCCCN)C(=O)N[C@@H](CC(=O)O)C(=O)N[C@@H](Cc1ccccc1)C(=O)N[C@@H](CC(C)C)C(=O)N[C@@H](CCCNC(=N)N)C(=O)N[C@@H](CCC(=O)O)C(=O)N[C@@H](CCSC)C(=O)N[C@@H](CC(N)=O)C(=O)N[C@H](C(=O)N1CCC[C@H]1C(=O)NCCOCCOCC(=O)N[C@@H](CCCCNC(=O)CCCC[C@@H]1SC[C@@H]2NC(=O)N[C@@H]21)C(N)=O)[C@@H](C)O [EBV hook peptide] (Ac-SHFSLRDFFRGISANFELGKDFLREMNTP[AEEA]K(Biotin)-NH2)
[6]
  IC50: 2600 nM
[6]; ratio of IC50 values
  fold lower inhibitory activity than the HCMV counterpart (hook protein or hook peptide): approximately 22 fold

B1: BFRF1: EBV groove protein of the core NEC; His-tagged in ELISA, HA-tagged in CoIP (protein)
chain: MASPEERLLDELNNVIVSFLCDSGSLEVERCSGAHVFSRGSSQPLCTVKLRHGQIYHLEFVYKFLAFKLKNCNYPSSPVFVISNNGLATTLRCFLHEPSGLRSGQSGPCLGLSTDVDLPKNSIIMLGQDDFIKFKSPLVFPAELDLLKSMVVCRAYITEHRTTMQFLVFQAANAQKASRVMDMISDMSQQLSRSGQVEDTGARVTGGGGPRPGVTHSGCLGDSHVRGRGGWDLDNFSEAETEDEASYAPWRDKDSWSESEAAPWKKELVRHPIRRHRTRETRRMRGSHSRVEHVPPETRETVVGGAWRYSWRATPYLARVLAVTAVALLLMFLRWT
modifications: Human herpesvirus 4
notes: EBV groove protein of the core NEC; His-tagged in ELISA, HA-tagged in CoIP
[1]
  CoIP interaction with HCMV pUL53: −
[4]
  CoIP interaction with EBV BFLF2: +

B2: MCMV pM50: MCMV core NEC protein, HA-tagged, transiently expressed (protein)
chain: MEIDKNVGADLISNTRRILRLDENELRITDTALICKNPNYSLCDAMLTTDIVYPVEYLLSYWECRSGRTACFVFKNTGCRVSLSCYIGFPERLKDLKRVCDFNFLSVNEALVVTLADIERIKPCDKGVLTNCVVRKSNSGMSYNIEVVAFGPDNEAEYQALLRDIYARRMTSVPTDCGSLICRRARCLAAAPPRRPPPPPPPGQRWGSLRKHGPVLTRRYAGGGGAAKNQPAAASPTSTSTSSPAAPSRDQDQTQRPPPAGDTNVTAAETTYSERTISFLTRHANAIHCALILAAAIALVLLWLLYWHAARSAGHP
modifications: Mouse cytomegalovirus 1
notes: MCMV core NEC protein, HA-tagged, transiently expressed
[1]
  CoIP interaction with HCMV pUL53: +
[3]
  CoIP interaction with MCMVpM53: +
[4]
  CoIP interaction with EBV BFLF2: −
